From the nanobody polyreactivity screen of Harvey et al. (2022) come the findings set out here.

A short description of the data set: yeast display, Sf9 membrane polyspecificity reagent, FACS + sequencing; frameworks hold sequencing errors. The method, boiled down:
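Genes from sorted yeast were amplified by colony PCR, read by MiSeq 2 × 250 sequencing and filtered on CDR length. These cells carried a synthetic nanobody library in Saccharomyces cerevisiae BJ5465 and were sorted by FACS into low and high (top ~1%) gates on anti-HA and streptavidin fluorescence. Polyreactivity is labelled according to the gate of origin.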
“QVQLVESGGGLVQAGGSLRLSCAASGRIFRSYAMGWYRQAPGKERELVAAISSGGSTNYADSVKGRFTISRDNAKNTVYLQMNSLKPEDTAVYYCAASYLYEWSRFVYDGLYYWGQGTQVTVSS”: the “polyreactivity (PSR sort gate)” value is on record as “low polyreactivity”.
The entry for “QVQLVESGGGLVQAGGSLRLSCAASGRIFRSYAMGWYRQAPGKERELVASISWSGVSTSYADSVKGRFTISRDIAKNTVYLQMNSLKPEDTAVYFCAARSWYVGSGPFNYWGQGTQVTVSS” is “high polyreactivity”; for “QVQLVESGGGLVQAGGSLRLSCAASGRIFRTYAMGWYRQAPGKERELVAAINSGGTTYYADSVKGRFTISRDNAKNTVYLQMNSLKPEDTAVYYCNAEYYYAFLRLWYDYWGQGTQVTVSS” it is “high polyreactivity”.
As for “QVQLVESGGGLVQAGGSLRLSCAASGRIFRTYTMGWYRQAPGKERELVAAITSGSSTYYADSVKGRFTISRDNAKNTVYLQMHSLKPEDTAVYYCATEWSIGRHLYTYNYWGPGTQVTVSS”, the entry is “high polyreactivity”; as for “QVQLVESGGGLVQAGGSLRLSCAASGRIFRVNAMGWYRQAPGKERELVAAINFSGTSTYYADSVKGRFTISRDNAKNTVYLQMNSLKPEDTAVYYCNTASYVSWYVHYYYWGQGTQVTVSS”, “low polyreactivity”; as for “QVQLVESGGGLVQAGGSLRLSCAASGRIFRVNAMGWYRQAPGKERELVAAISWIGGRTYYADSVKGRFTISRDNAKNTVYLQMNSQKPEDTAVYYCAAVGSSSTHWASRSYRYNYWGQGTQVTVSS”, “high polyreactivity”.
The entry for “QVQLVESGGGLVQAGGSLRLSCAASGRIFRVNGMGWDRQAPGKERELVAAIRRSGGSTYYADSVKGRFTISRDNAKNTVYLQMNSLKPEDTAVYYCAAPVRQSSYTRYDSWGQGTQVTVSS” is “high polyreactivity”; for “QVQLVESGGGLVQAGGSLRLSCAASGRIFRVYAMGWYRHAPGKERELVAAISGRGGSTTYADSVKGRFTISRDNAKNTVYLQMNSLKPEDTAVYYCNTAYLAKRSGRRRFNYWGHGTQVTVSS” it is “low polyreactivity”; for “QVQLVESGGGLVQAGGSLRLSCAASGRIFRVYAMGWYRQAPGKERELVAAISWSGGRTYYADSVKGRFTISRDNAKNTVYLQMNSLKPEDTAVYYCAAVRYERGLWSDYWGQGTQVTVSS” it is “high polyreactivity”.
For the sequence “QVQLVESGGGLVQAGGSLRLSCAASGRIFRVYAMGWYRQAPGKERELVAAISYSGGSTYYADSVKGRFTISRDNAKNTVYLQMNSLKPEDTAVYYCAAIRRSSKESKGTNPYEYWGQGTQVTVSS”, the “polyreactivity (PSR sort gate)” value was “high polyreactivity”.
The entry for “QVQLVESGGGLVQAGGSLRLSCAASGRIFRVYTMGWYRPAPGKESELVAAISRGGSTNYADSVKGRFTISRDNAKNTVYLQMNSLKPEDTAVYYCAARYPNLRRRWYYYWGQGTQVTVSS” is “high polyreactivity”.
As for “QVQLVESGGGLVQAGGSLRLSCAASGRIFRWNVTGWYRQAPGKETELDASITSGSSTNYADSVKGRFTISRDNAKYTVFLQMNSLKPEDTAVYYSAAYGVQTYRRYSYPRGFDYWGQGTQVTVSS”, the entry is “high polyreactivity”; as for “QVQLVESGGGLVQAGGSLRLSCAASGRIFRWYAMGWYRQAPGKERELVAAISKSGGTTNYADSVKGRFTISRDNAKNTVYLQMNSLKPEDTAVYYCAARRYPYGGYGYRYDYWGQGTQVTVSS”, “high polyreactivity”.
The entry for “QVQLVESGGGLVQAGGSLRLSCAASGRIFRWYAMGWYRQAPGKERELVATISSSGRTNYADSVKGRFTISRDNAKNTVYLQMNSLKPEDTAVYYCAAEYYLRYRYDYWGQGTQVTVSS” is “high polyreactivity”; for “QVQLVESGGGLVQAGGSLRLSCAASGRIFRYNAMGWYRQAPGKEREFVAAITQSGGSTYYADSVKGRFTISRDNAKNTVYLQMNRLKPEDTAVYYSAADRFYWTYLNYQFLTDYWGQGTQVNVSS” it is “high polyreactivity”; for “QVQLVESGGGLVQAGGSLRLSCAASGRIFRYNAMGWYRQAPGKERELVAAISTSGTRTFYADSVKGRFTISRDNAKNTVYLQMNSLKPEDTAVYYCNKVAGPGKLGTYYYWGQGTQVTVSS” it is “high polyreactivity”.
For “QVQLVESGGGLVQAGGSLRLSCAASGRIFRYNAMGWYRQAPGKERELVAAISWGGGSTYYADSVKGRFTISRDNAKNTVYLQMNSLKPEDTAVYYCAVTSGSSFRMGYWGQGTQVTVSS”, the “polyreactivity (PSR sort gate)” value is “high polyreactivity”.
The entry for “QVQLVESGGGLVQAGGSLRLSCAASGRIFRYNAMGWYRQAPGKERELVAAITSGTGTNYADSVKGRFTISRDNAKNTVYLQMNSLKPEDTAVYYCAAQPGQAWWSTDHDDYWGQGTQVTVSS” is “low polyreactivity”; for “QVQLVESGGGLVQAGGSLRLSCAASGRIFRYNAMGWYRQAPGKERELVADISKRGGSTYYADSVKGRFTISRDNAKNTVYLQMNSLKPEDTAVYYCNARNTYYVVANDYWGQGTQVTVSS” it is “high polyreactivity”.
The entry for “QVQLVESGGGLVQAGGSLRLSCAASGRIFRYNAMGWYRQAPGKERELVATIRWGGGGTYYADSVKGRFTISRDNAKNSVYLLMNSLKPEDTAVYYCNAKRYSPGYNYWGQGTQVTVSS” is “high polyreactivity”; for “QVQLVESGGGLVQAGGSLRLSCAASGRIFRYNAMGWYRQAPGKERELVATISKSGGSTYYADSVKGRFTISRDNANYTVYLQMNSLKPEDTAVYYCAASYHPWLADYGYWGQGTQVSVSS” it is “low polyreactivity”; for “QVQLVESGGGLVQAGGSLRLSCAASGRIFRYNAMVWYRQAPGKERELVAAITWSGTSTYYADSLKGRFTLSRDNAKNTVYLHMNSLKPEDTAVYYCNADRVDRELFTFDYWGQGTQVTVSS” it is “high polyreactivity”.
For “QVQLVESGGGLVQAGGSLRLSCAASGRIFRYYAMGWYRPATGKERELVAGITRGGTTNYSDSVKGRFTISRDNAKNTVYLQMNSLKPEDTAVYYCAADTRRGIIGYDYWGQGTQVTVSS”, the “polyreactivity (PSR sort gate)” value is given as “high polyreactivity”.
Consider “QVQLVESGGGLVQAGGSLRLSCAASGRIFRYYAMGWYRQAAGKERELVAAIRYRSGGTSYADSVKGRFTISRDNAKNTVYLQMNSLKPEDTAVYYCNADKRLRGHGYDYWGQGTQVTVSS”, for which the “polyreactivity (PSR sort gate)” value is on record as “high polyreactivity”.
As for “QVQLVESGGGLVQAGGSLRLSCAASGRIFRYYAMGWYRQAPGKEREFVAAISSNTGTGTYYADSVKGRFTISRDNAKNTVYLQMNSLKPEDTAVYYCNAKYKYRGYYWGQGTQVTVSS”, the entry is “high polyreactivity”; as for “QVQLVESGGGLVQAGGSLRLSCAASGRIFRYYAMGWYRQAPGKERELDAGITGRGGRTYYADSVKGRFTISRDNAKNTVYLQMNSLKPEDTAVYYCAATVSPSYDYWGQGTQVTVSS”, “high polyreactivity”; as for “QVQLVESGGGLVQAGGSLRLSCAASGRIFRYYAMGWYRQAPGKERELVAAIDSVGSTYYADSVKGRFTISRDNAKNTVYLQMNSLKPEDTAVYYCNARVYTFPTRYDYWGQGTQVTVSS”, “high polyreactivity”.
The entry for “QVQLVESGGGLVQAGGSLRLSCAASGRIFRYYAMGWYRQAPGKERELVAAIRIRGGSTSYADSVKGRFTISRDNAKNTVYLQMNSLKPEDTAVYYCNKRDKVTYSYDYWGQGTQVTVSS” is “high polyreactivity”.
For “QVQLVESGGGLVQAGGSLRLSCAASGRIFRYYAMGWYRQAPGKERELVAAISGNGGRTSYADSVKGRFTISRDTAKNTVYLQMNSLNPEDTAVYYCAKYPVQSDYLFDHWGQGTQVTVSS”, the “polyreactivity (PSR sort gate)” value is reported as “high polyreactivity”.
The entry for “QVQLVESGGGLVQAGGSLRLSCAASGRIFRYYAMGWYRQAPGKERELVAAISTAGSTYYADSVMGRFTISRDNAKNTVYLQMNSLKPEDTAVYFCAARTYRSVYGPEYGYWGQGTQVTVSS” is “high polyreactivity”.
As for “QVQLVESGGGLVQAGGSLRLSCAASGRIFRYYAMGWYRQAPGKERELVAAITKNGGSTYYADSVKRRFTISRDNAKNTVYLQMNSLKPEDTAVYYCAAARLGNYDYWGQGTQVTVSS”, the entry is “high polyreactivity”; as for “QVQLVESGGGLVQAGGSLRLSCAASGRIFRYYAMGWYRQAPGKERELVAAITRGGRTNYADSVKGRFTISRDNAKNTVYLQMNSLKQEDTAFYYCAARNVFQSVHVRGGYWGQGTQVTVSS”, “high polyreactivity”; as for “QVQLVESGGGLVQAGGSLRLSCAASGRIFRYYAMGWYRQAPGKERELVAAITWRGSSTYYADSVKGRFTISRDNAKNTVYLQMNSLKPEDTAVYYCNKLRSPHGYIRPGYDYWGQGTQVTVSS”, “high polyreactivity”.
The entry for “QVQLVESGGGLVQAGGSLRLSCAASGRIFRYYAMGWYRQAPGKERELVARITNGAITNYADSVKGRFTISRDNAKNTVYLQMNSLKPEDTAVYYCAADPWYTLSVPSGYDYWGQGTQVTVSS” is “high polyreactivity”; for “QVQLVESGGGLVQAGGSLRLSCAASGRIFRYYAMGWYRQAPGKERELVASITRRGGSTYYADSVKGRFTISRDNAKNTVYLQMNSLKPEDTAVYYCVGDTYYNLGNYWGQGTQVTVSS” it is “high polyreactivity”; for “QVQLVESGGGLVQAGGSLRLSCAASGRIFRYYAMGWYRQAPGKERELVATISSSGGSTYYADSVKGRFTISRDNAKNTVYLQMNSLKPEDTAVYYCAADWYGYRQFHGYYWGQGTQVTVSS” it is “high polyreactivity”.
In the case of “QVQLVESGGGLVQAGGSLRLSCAASGRIFRYYAMGWYRQEPGKERELVAVITRGTSTKYADSVKGRFTISRDNAKITVYLQMNSLKPEDTAVYYCAADYWYANVGFDYWGQGTQVTVSS”, the “polyreactivity (PSR sort gate)” value is on record as “high polyreactivity”.
In the case of “QVQLVESGGGLVQAGGSLRLSCAASGRIFRYYDMGWYRPAPGTERELVAAITSDGSTKYADSVKGRFTISRDNAKNTVYLQMNSLKPEDTAVYYCNAEVLPTWYSPQLDYWGQGTQVTVSS”, the “polyreactivity (PSR sort gate)” value is on record as “low polyreactivity”.
The entry for “QVQLVESGGGLVQAGGSLRLSCAASGRIFRYYSMGWYRQAPGKERELVAAISRSGSTNYADSVKGRFTISRDNAKNTVYFQMNSLKPEDTAVYYCAADSNYLYFWRRYKRMDYWGQGTQVTVSS” is “high polyreactivity”; for “QVQLVESGGGLVQAGGSLRLSCAASGRIFRYYTMGWYRQAPGKEREFVAAITLSGGRTYYADSVKGRFTISRDNAKNTVYLQMNSLKPEDTAVYYCAAYDRITRYDYWGQGTQVTVSS” it is “high polyreactivity”.
